Molecular target: Aβ42 (Homo sapiens, UniProt P05067)
Assay: Aβ42 aggregation with oxidized or reduced BRI polypeptides (native gel/western blot, ELISA-based assay)
Format: biochemical
Details: oxidized form (no DTT), 2 μM polypeptide, 1.5 μM Aβ42, 5 hours at 37° C.
Procedure: FIG. 10. […] BRI polypeptides in DMSO were diluted into 150 mM NaCl, 20 mM Tris-HCl, pH7.4 (TBS) at a final concentration of 2 μM in the absence (OX) or presence (RED) of 2 mM DTT. Mixtures were incubated for 10 minutes at room temperature and then chilled to 0° C. A control samples lacking any BRI polypeptide were prepared identically using DMSO alone. Aβ42 in DMSO then was added to a final concentration of 1.5 μM, and the mixtures divided into two aliquots. One aliquot was incubated for 5 hours at 0° C., and the other was incubated at 37° C. to induce Aβ42 aggregation. At the end of the incubation, all samples were returned to 0° C. to stop further aggregation prior to analysis. Aggregation was assessed either by native gel electrophoresis followed by western blotting (panel A) or by the ELISA-based assay (panel B).

Chain of Aβ42 (P05067 672-713 limits assumed): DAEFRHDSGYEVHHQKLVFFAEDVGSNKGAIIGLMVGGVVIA

Row | Substance | Aβ42 aggregation in vitro
1 | Bri24: C-terminal fragment of BRI1 (ITM2A), AIDKCWKIRHFPNEFIVETICICQD (SEQ ID NO: 5) | inhibit Aβ42 aggregation
2 | Bri25: C-terminal fragment of BRI3 (ITM2C), GAICNCNAIRHFENTFVVETLICGVV (SEQ ID NO: 6) | inhibit Aβ42 aggregation

Reference: patent publication US20100298202A1, “BRI POLYPEPTIDES AND REDUCING AB AGGREGATION” (MAYO FOUNDATION FOR MEDICAL EDUCATION AND RESEARCH, priority 2007, published 2010)
